T1: unlabelled murine Amyloid beta 1-40 peptide (murine, UniProt P12023 672-711)
T1 construct: domain: Amyloid beta 1-40 peptide
T1 peptide (looked up): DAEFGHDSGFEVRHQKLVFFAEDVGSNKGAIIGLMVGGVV

T2: unlabelled murine Amyloid beta 1-42 peptide (murine, UniProt P12023 672-713)
T2 construct: domain: Amyloid beta 1-42 peptide
T2 peptide (looked up): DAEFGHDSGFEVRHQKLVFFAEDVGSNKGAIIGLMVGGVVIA

B1: Abet0380-GL (germlined) IgG1-TM (antibody, V domains shown)
VH: EVQLLESGGGLVQPGGSLRLSCAASMGNFNYQTMWWVRQAPGKGLEWVSVIGKTNENIAYADSVKGRFTISRDNSKNTLYLQMNSLRAEDTAVYYCAREWMDHSRPYYYYGMDVWGQGTLVTVSS
VL: SYELTQPPSVSVSPGQTASITCSGHNLEDKFASWYQQKPGQSPVLVIYRDDKRPSGIPERFSASNSGHTATLTISGTQAMDEADYYCSSQDTVTRVFGGGTKLTVL
notes: also called Abet0380-GL IgG1-TM; Abet0380-GL IgG1TM

Key:
[1] = biological target: B1; test: HTRF competition: unlabelled peptide titrated against the binding of N-terminal biotin Abeta 1-42 (1.5 nM) to Abet0380-GL IgG1-TM (0.5 nM)
Protocol: The assay was then incubated for a further 2 hrs at room temperature before reading on an Envision plate reader (PerkinElmer) using a standard homogeneous time resolved fluorescence (HTRF) read protocol.
The final assay volume was 20 μl and all reagents were prepared in an assay buffer comprising MOPS pH7.4 (50 mM), potassium fluoride (0.4M), tween 20 (0.1%) & fatty acid free BSA (0.1%). The assay was performed in low volume 384 well black assay plates (Costar 3676).

[2] = biological target: T3, biotinylated synthetic human Amyloid beta 1-42 peptide (human, UniProt P05067 672-713, biotinylated (N-terminal biotin in Example 4)); test: Surface Plasmon Resonance, purified scFv (group statement that sums up Table 5)
T3 construct: domain: Amyloid beta 1-42 peptide; Numbers 1-42 count on the Amyloid beta peptide, not on APP; also called biotinylated human Amyloid beta 1-42; N-terminal biotin Abeta 1-42

[3] = biological target: T3, biotinylated synthetic human Amyloid …; test: HTRF epitope competition; purified scFv titrated; competitor Abet0144-GL IgG1-TM
Protocol: (§1) Two thousand and twenty four scFv chosen at random from selection rounds 3 and 4 of the targeted mutagenesis approach described in section 1.2 were expressed in bacteria to produce unpurified periplasmic scFv.
(§2) One thousand six hundred and seventy two scFv, randomly selected from selection rounds 9 to 11, were screened in an epitope competition assay as described in section 1.3.
(§3) Where the assay was performed more than once, the absolute range of IC₅₀ values is provided.
Target sequence in this assay (P05067 672-713 limits assumed): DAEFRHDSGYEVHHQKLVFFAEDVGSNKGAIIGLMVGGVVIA

[4] = biological target: T3, biotinylated synthetic human Amyloid …; test: SPR (ProteOn); biotinylated peptide on streptavidin chip, scFv in solution; 1:1 Langmuir fit
Protocol: (§4) These experiments were performed essentially as described by Karlsson et al. (Karlsson et al., 1991).
(§5) The chip surface was regenerated between cycles by a single 60 second injection of 10 mM Glycine pH 2.0 to remove scFv bound to the peptide.
(§6) Each scFv at 100-200 nM was sequentially passed over the peptide surface for a sufficient amount of time to observe sensorgrams that could be fitted to an appropriate binding model with confidence. An irrelevant scFv blank was subtracted from the main dataset to reduce the impact of any buffer artefacts or non-specific binding effects. An appropriate binding model was then fitted to the data.

[5] = biological target: T3, biotinylated synthetic human Amyloid …; test: HTRF epitope competition; purified scFv titrated; competitor Abet0144-GL IgG1-TM; range of repeats
Protocol: as §1, §2, §3
Target sequence in this assay (P05067 672-713 limits assumed): as above

[6] = biological target: T3, biotinylated synthetic human Amyloid …; test: HTRF epitope competition: purified scFv titrated against the complex of biotinylated human Amyloid beta 1-42 and Abet0144-GL IgG1-TM [upper graph; the letter C stands below it]
From the text: as §1, §2

[7] = biological target: T3, biotinylated synthetic human Amyloid …; test: SPR (ProteOn); biotinylated peptide on streptavidin chip, scFv in solution
Protocol: as §4, §5, §6
Target sequence in this assay (P05067 672-713 limits assumed): as above

[8] = biological target: T3, biotinylated synthetic human Amyloid …; test: HTRF epitope competition: purified scFv titrated against the complex of biotinylated human Amyloid beta 1-42 and Abet0144-GL IgG1-TM
From the text: as §1, §2

[9] = biological target: T4, synthetic human Amyloid beta 1-42 peptide (human, UniProt P05067 672-713); test: SPR (BIAcore T-100); IgG captured on protein G, peptide 0.063-1024 nM in solution; 1:1 Langmuir fit
T4 construct: domain: Amyloid beta 1-42 peptide; also called Abeta 1-42
Protocol: The chip surface was regenerated between cycles by paired 40 second injections of 10 mM Glycine pH 2.0 to remove ligand and bound antibody. The test antibody was then reapplied for each peptide injection.
Blank reference flow-cell data were subtracted from each IgG dataset and a zero-concentration antibody-only buffer blank was double-reference subtracted from the main dataset. An appropriate binding model was then fitted simultaneously to the data from each analyte titration using the BIAevaluation software.

[10] = biological target: T5, biotinylated human Amyloid beta 1-40 peptide (human, UniProt P05067 672-711, biotinylated); test: Surface plasmon resonance (BIAcore), antibody captured on protein G, single cycle with five peptide injections
T5 construct: domain: Amyloid beta 1-40 peptide
Protocol: as §4
(§7) The interaction between each test IgG and each peptide was estimated using assays in which the antibody was non-covalently captured by a protein G surface that was itself amine linked to a proprietary CM5 chip. […] The chip surface was regenerated between cycles by paired 40 second injections of 10 mM Glycine pH 2.0 to remove ligand and bound antibody. The test antibody was then reapplied for each peptide injection cycle.
(§8) Blank reference flow-cell data were subtracted from each IgG dataset and a zero-concentration antibody-only buffer blank was double-reference subtracted from the main dataset.

[11] = biological target: T1, unlabelled murine Amyloid beta 1-40 …; test: as above
Protocol: as §4, §7, §8

[12] = biological target: T2, unlabelled murine Amyloid beta 1-42 …; test: Surface plasmon resonance (BIAcore), antibody captured on protein G, single cycle with five peptide injections (64 to 1024 nM by paragraph 390)
Protocol: as §4, §7, §8

| IC50 [3] [nM] | IC50 [5] [nM] | Kd [7] [nM] | koff [7] [s⁻¹] | kon [7] [M⁻¹ s⁻¹] | Binder | other results |
| --- | --- | --- | --- | --- | --- | --- |
| – | – | – | – | – | VHHQKLVFFAEDVGSNK (peptide, UniProt P05067 683-699, looked up, domain: Abeta 12-28) [human Abeta 12-28 peptide] | binding result [1]: no binding (tested: log -5 M (10 uM)) |
| – | – | – | – | – | DAEFRHDSGYEVHHQK (peptide, UniProt P05067 672-687, looked up, domain: Abeta 1-16) [human Abeta 1-16 peptide] | binding result [1]: no binding (tested: log -5 M (10 uM)) |
| – | – | – | – | – | LVFFAEDVGSNKGAIIGLMVGGVVIA (peptide, UniProt P05067 688-713, looked up, domain: Abeta 17-42) [human Abeta 17-42 peptide] | IC50 (read off the curve) [1]: ~5 nM |
| 0.43 | 0.38 to 0.47 | – | – | – | Abet0380 scFv (scFv, V domains shown, not shown: small tags and cut ends, Purified scFv expressed in E. coli) VH: EVQLLESGGGLVQPGGSLRLSCAASMGNFNYQTMWWVRQAPGRGLEWVSVIGKTNENIAYADSVKGRFTISRDNSKNTLYLQMNSLRAEDTAVYYCAREWMDHSRPYYYYGMDVWGQGTLVTVSS VL: SYELTQPPSVSVSPGQTASITCSGHNLEDKFASWYQQKPGQSPVLVIYRDDKRPSGIPERFSASNSGHTATLTISGTQATDEADYYCSSQDTVTRVFGGGTKLTVL | Kd [2]: < 0.25 nM; Kd [4]: 0.148 nM; koff [4]: 2.85e-05 s⁻¹; kon [4]: 193000 M⁻¹ s⁻¹; IC50 (read off the curve) [6]: ~0.5 nM |
| 0.71 | 0.43 to 0.98 | 0.812 | 0.000165 | 203000 | Abet0322b scFv (scFv, V domains shown, not shown: small tags and cut ends, Purified scFv expressed in E. coli) VH: EVQLLESGGGLVQPGGSLRLSCAASNEEFQYNPMWWVRQAPGKGLEWVSVIGSSGGATVYADAVKGRFTISRDNSENTLYLQMNSLRAEDTAVYYCAREWMDHSRPYYYYGMDVWGQGTLVTVSS VL: SYELTQPPSVSVSPGQTASITCSGHNLGDKFASWYQQKPGQSPVLVIYRDDKRPSEIPERFSASNSGHTATLTISGTQATDEADYYCSSQDTVTRVFGGGTKLTVL | – |
| 0.73 | 0.69 to 0.76 | 0.222 | 3.33e-05 | 150000 | Abet0321b scFv (scFv, V domains shown, not shown: small tags and cut ends, Purified scFv expressed in E. coli) VH: EVQLLESGGGLVQPGGSLRLSCAASAYHSNHDPMWWVRQAPGKGLEWVSVIGSSGGTTAYADSVKGRFTISRDNSKNTLYLQMNSLRAEDTAVYYCAREWMDHSRPYYYYGMDVWGQGTLVTVSS VL: SYELTQPPSVSVSPGQTASITCSGHNLEDKFASWYQQKPGQSPVLIIYRDDKRPSGIPERFSASNSGHTATLTISGTQATDEADYYCSSQDTVTRVFGGGTKLTVL | – |
| 0.32 | 0.29 to 0.35 | 0.154 | 3.02e-05 | 196000 | Abet0377 scFv (scFv, V domains shown, not shown: small tags and cut ends, Purified scFv expressed in E. coli) VH: EVQLLESGGGLVQPGGSLRLSCAASGFNFNEQTLWWVRQAPGKGLEWVSVIGVGTKNIAYADTVKGRFTISRDNSKNTLYLQMNSLRAEDTAVYYCAREWMDHSRPYYYYGMDVWGQGTLVTVSS VL: SYELTQPPSVSVSPGQTASITCSGHNTEHKWISWYQQKPGQSPVLVIYRDDKRPSGIPERFSATNSGHTATLTISGTQATDEADYYCSSQDTVTRVFGGGTKLTVL | IC50 (read off the curve) [8]: ~0.3 nM |
| 0.42 | 0.41 to 0.43 | 0.236 | 6.04e-05 | 256000 | Abet0374 scFv (scFv, V domains shown, not shown: small tags and cut ends, Purified scFv expressed in E. coli) VH: EVQLLESGGGLVQPGGSLRLSCAASGFQFKDTPMWWVRQAPGKGLEWVSVIGDQNHKKAYADSVKGRFTISRDNSKNTLYLQMNSLRAEDTAVYYCAREWMDHSRPYYYYGMDAWGQGTLVTVSS VL: SYELTQPPSVSVTPGQTASITCSGHNLGGKFASWYQQKPGQSPVLVIYRDDKRPSGIPERFSASNFGHTATLTISGTQATDEADYYCSSQDTVTRVFGGGTKLTVL | – |
| 14 | 8.1 to 18 | 58.7 | 0.0066 | 116000 | Abet0144-GL scFv (scFv, V domains shown, not shown: small tags and cut ends, Purified scFv expressed in E. coli; also called parent clone) VH: EVQLLESGGGLVQPGGSLRLSCAASGFTFSVYTMWWVRQAPGKGLEWVSVIGSSGGTTVYADSVKGRFTISRDNSKNTLYLQMNSLRAEDTAVYYCAREWMDHSRPYYYYGMDVWGQGTLVTVSS VL: SYELTQPPSVSVSPGQTASITCSGHNLEDKFASWYQQKPGQSPVLVIYRDDKRPSGIPERFSASNSGHTATLTISGTQAMDEADYYCQAQDSTTRVFGGGTKLTVL | – |
| 0.67 | 0.57 to 0.76 | 0.894 | 0.000188 | 210000 | Abet0323b scFv (scFv, V domains shown, not shown: small tags and cut ends, Purified scFv expressed in E. coli) VH: EVQLLESGGGLVQPGGSLRLSCAASTSTFQEDTMWWVRQAPGKGLEWVSVIGPNPKNNAYADSVKGRFTISRDNSKNTLYLQMNSLRAEDTAVYYCAREWMDHSRPYYYYGMDVWGQGTLVTVSS VL: SYELTQPPSVSVSPGQTASITCSGHNLEDKFASWYQQKPGQSPVLVIYRDDKRPSGVPERFSASNSGHTATLTISGTQATDEADYYCSSQDTVTRVFGGGTKLIVL | – |
| 0.36 | 0.3 to 0.41 | 0.133 | 4.34e-05 | 327000 | Abet0369 scFv (scFv, V domains shown, not shown: small tags and cut ends, Purified scFv expressed in E. coli) VH: EVQLLESGGGLVQPGGSLRLSCAASSFQISKNTMWWVRRAPGKGLEWVSVIGKDETRFNYADSVKGRFTISRDNSKNTLYLQMNSLRAEDTAVYYCAREWMDHSRPYYYYGMDVWGQGTLVTVSS VL: SYGLTQPPSVSVSPGQTASITCSGRNIGDSWVAWYQQKPGQSPVLVIYRDDKRPSGIPERFSASNSGHTATLTISGTQATDEADYYCSSQDTVTRVFGGGTKLTVL | IC50 (read off the curve) [8]: ~0.4 nM |
| – | – | – | – | – | B1 | Kd [9]: 0.322 nM; koff [9]: 0.000307 s⁻¹; kon [9]: 952000 M⁻¹ s⁻¹; binding result [10]: no binding; binding result [11]: no binding; binding result [12]: binds |

— patent US20190262327A1 (AstraZeneca / MedImmune, published 2019)
